Our source for the 抗体效价 (ELISA titer) values is patent CN116554335A.

The test concerns the target T1, 合成的G6PC多肽 (synthetic G6PC immunogen peptide, sequence range 80-120aa) (human) (UniProt P35575).
T1 sequence (peptide, looked up): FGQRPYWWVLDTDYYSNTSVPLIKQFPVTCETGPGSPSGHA
Nature of the test: indirect ELISA, serial two-fold dilution of the antibody; coating antigen not stated (taken to be the immunogen peptide).

B1: 兔单克隆抗体OTIR5G10 (rabbit anti-human glucose-6-phosphatase (G6PC) monoclonal antibody OTIR5G10) (antibody, V domains shown)
VH: QSVEESGGRLVTPGTPLTLTCTVSGADLSTYGVIWVRQAPGKGLEYIAAIVSGGRPYYRHWAKGRFTISKTSSTTVELKITSPTTEDTATYFCVLGNLWGQGTLVTVSS
VL: AQVLTQTASPVSAAVGGTVTINCQASQSVYSNNYLSWFQQKPGQPPKQLIYRASKLASGVSSRFKGSGSGTQFTLTISDVQCDDAATYYCLGGYDCSSADFGGGTEVVVK
Consider B1, for which the 抗体效价 (ELISA titer) worked out at 1.2e+07.
